In patent EP1992633A1 (HUMAN GENOME SCIENCES, INC., dated 2008):

Assays:
Test in all cases: method not described (cites Mazzei et al. 1995)
[1] = molecular target: T1, DR4 (UniProt O00220 24-239, limits assumed)
T1 sequence (looked up): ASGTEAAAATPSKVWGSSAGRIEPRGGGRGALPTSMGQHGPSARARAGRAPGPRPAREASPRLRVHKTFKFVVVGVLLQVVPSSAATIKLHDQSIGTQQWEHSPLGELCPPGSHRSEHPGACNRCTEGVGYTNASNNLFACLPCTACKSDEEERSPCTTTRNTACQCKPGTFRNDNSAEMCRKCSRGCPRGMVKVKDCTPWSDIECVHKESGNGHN

[2] = molecular target: T2, Fas (UniProt P25445 26-173, limits assumed)
T2 sequence (looked up): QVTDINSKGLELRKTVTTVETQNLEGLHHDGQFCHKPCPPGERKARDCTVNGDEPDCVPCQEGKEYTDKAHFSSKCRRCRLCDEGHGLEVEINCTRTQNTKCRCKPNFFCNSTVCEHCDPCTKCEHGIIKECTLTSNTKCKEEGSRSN

[3] = molecular target: T3, TNFR1 (UniProt P19438 30-211, limits assumed)
T3 sequence (looked up): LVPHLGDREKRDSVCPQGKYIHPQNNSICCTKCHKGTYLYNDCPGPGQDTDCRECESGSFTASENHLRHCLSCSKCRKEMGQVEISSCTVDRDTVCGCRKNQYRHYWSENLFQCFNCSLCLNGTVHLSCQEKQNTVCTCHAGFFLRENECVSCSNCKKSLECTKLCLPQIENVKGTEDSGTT

[4] = molecular target: T4, DR3 (UniProt Q93038 25-199, limits assumed)
T4 sequence (looked up): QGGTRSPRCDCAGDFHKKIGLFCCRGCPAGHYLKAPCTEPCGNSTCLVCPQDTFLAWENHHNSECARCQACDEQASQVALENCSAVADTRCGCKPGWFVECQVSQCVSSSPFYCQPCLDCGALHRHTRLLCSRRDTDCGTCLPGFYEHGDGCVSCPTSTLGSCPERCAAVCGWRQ

[5] = molecular target: T5, TNFR2 (UniProt P20333 23-257, limits assumed)
T5 sequence (looked up): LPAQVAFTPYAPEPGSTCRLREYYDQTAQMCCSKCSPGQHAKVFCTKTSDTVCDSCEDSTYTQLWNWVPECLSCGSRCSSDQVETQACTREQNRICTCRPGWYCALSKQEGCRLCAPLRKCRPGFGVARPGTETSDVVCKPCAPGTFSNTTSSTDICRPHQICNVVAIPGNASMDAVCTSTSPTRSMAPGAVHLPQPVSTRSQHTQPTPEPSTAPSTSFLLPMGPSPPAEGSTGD

Measured: binding result

B1: truncated version of VEGI-alpha corresponding to the putative extracellular domain consisting of residues 38-174, expressed in E. coli (ligand)
chain: ALHWEHELGLAFTKNRMNYTNKFLLIPESGDYFIYSQVTFRGMTSECSEIRQAGRPNKPDSITVVITKVTDSYPEPTQLLMGTKSVCEVGSNWFQPIYLGAMFSLQEGDKLMVNVSDISLVDYTKEDKTFFGAFLL
notes: also called VEGI-alpha deletion mutant; the mutant
no binding: [1] | [2] | [3] | [4] | [5]
